In article PMC3215713, “Probing the Limits of Aptamer Affinity with a Microfluidic SELEX Platform”:

Key:
Bovine serum albumin [1] = biological target: T1, Bovine serum albumin (Bos taurus (Bovine), UniProt P02769 25-607); test: pulldown; PBS pH 7.4, 1 mM MgCl2, 0.025% Tween 20, RT; settings: label: 5'-Alexa Fluor 488
[2] = biological target: PDGF-BB (platelet-derived growth factor BB) (UniProt P01127 82-190); test: bead-based fluorescence; PDGF-BB and ApoE: PBS pH 7.4, 1 mM MgCl2, 0.025% Tween 20; thrombin: 50 mM Tris pH 7.5, 100 mM NaCl, 1 mM MgCl2, 5 mM KCl, 1 mM CaCl2, 0.025% Tween 20; 1 h, room temperature; settings: protein: commercial; chain copies: 2; label: 5'-FAM
thrombin = thrombin (UniProt P00734;P00734 315-363;364-622); test: bead-based fluorescence; PDGF-BB and ApoE: PBS pH 7.4, 1 mM MgCl2, 0.025% Tween 20; thrombin: 50 mM Tris pH 7.5, 100 mM NaCl, 1 mM MgCl2, 5 mM KCl, 1 mM CaCl2, 0.025% Tween 20; 1 h, roo
Bovine serum albumin [3] = biological target: T1, Bovine serum albumin; test: pulldown; 50 mM Tris pH 7.5, 100 mM NaCl, 1 mM MgCl2, 5 mM KCl, 1 mM CaCl2, 0.025% Tween 20, RT; settings: label: 5'-Alexa Fluor 488

T1 sequence (P02769 25-607): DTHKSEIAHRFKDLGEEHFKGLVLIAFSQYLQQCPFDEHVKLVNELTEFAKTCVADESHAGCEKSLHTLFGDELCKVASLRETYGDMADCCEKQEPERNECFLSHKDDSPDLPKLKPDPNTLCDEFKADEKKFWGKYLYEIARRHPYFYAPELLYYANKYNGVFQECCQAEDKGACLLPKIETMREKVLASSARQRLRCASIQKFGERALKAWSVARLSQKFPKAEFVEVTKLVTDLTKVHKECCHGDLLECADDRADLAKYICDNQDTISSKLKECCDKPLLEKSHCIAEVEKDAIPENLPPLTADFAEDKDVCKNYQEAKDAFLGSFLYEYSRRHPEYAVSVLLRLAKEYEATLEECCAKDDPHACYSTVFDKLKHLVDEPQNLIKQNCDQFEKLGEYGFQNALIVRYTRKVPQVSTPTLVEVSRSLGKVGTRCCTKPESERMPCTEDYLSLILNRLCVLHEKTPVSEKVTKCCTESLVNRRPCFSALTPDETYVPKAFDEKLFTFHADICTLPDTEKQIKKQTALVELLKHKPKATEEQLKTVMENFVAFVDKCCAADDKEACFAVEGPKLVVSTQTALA
Chain of PDGF-BB (platelet-derived growth factor BB) (P01127 82-190): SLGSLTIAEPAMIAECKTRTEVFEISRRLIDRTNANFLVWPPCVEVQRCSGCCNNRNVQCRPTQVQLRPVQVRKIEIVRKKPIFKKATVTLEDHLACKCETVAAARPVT

B1: ApoE-06 (Ahmad 2011) (ssDNA)
DNA: AGCAGCACAGAGGTCAGATGACTAGCTACGGGGTGGGTGGGCGGTGTCAGTTTGTTTATTGGTGCTATACATCCTCTATACCTATGCGTGCTACCGTGAA
B1: no binding (Bovine serum albumin [1]).

B2: Green PDGF aptamer 36t (ssDNA)
DNA: CACAGGCTACGGCACGTAGAGCATCACCATGATCCTGTG
For B2, the Kd [2] was 0.12 nM.

B3: Bock thrombin aptamer (consensus 15-mer) (ssDNA)
DNA: GGTTGGTGTGGTTGG
B3 gave a Kd (thrombin) of 1.2 nM.

B4: PDGF-09 (ssDNA)
DNA: AGCAGCACAGAGGTCAGATGGAATCATGATCCCCCATGACCTGGGGGCGTTACTGGCGAGCATCATGAGAGATCGTGCGACCTATGCGTGCTACCGTGAA
B4: no binding (Bovine serum albumin [1]).

B5: Tasset thrombin aptamer 60-18[29] (ssDNA)
DNA: AGTCCGTGGTAGGGCAGGTTGGGGTGACT
With B5 the Kd (thrombin) was 11.9 nM.

B6: Thr-08 (ssDNA)
DNA: AGCAGCACAGAGGTCAGATGCAGCGCTAGGGCTTTTAGCGTAATGGGTAGGGTGGTGCGGTGCAGATATCGGAATTGGTGCCTATGCGTGCTACCGTGAA
B6: no binding (Bovine serum albumin [3]).
